Experimental data reported in PMC8892158.

Molecular target: Staphylococcus aureus FakA (S. aureus)

Staphylococcus aureus FakB1 (wild type), palmitate-loaded (from UniProt X5EH37 1-288) (natural protein)
apparent KM of FakB1 in the FA kinase assay with 0.2 μM FakA: 0.13 µM

Staphylococcus aureus FakB1(A121I), palmitate-loaded (from UniProt X5EH37 1-288) (natural protein)
apparent KM of FakB1(A121I) in the FA kinase assay with 0.2 μM FakA: 0.1 µM

Staphylococcus aureus FakB1(A158L), myristate-loaded (from UniProt X5EH37 1-288) (natural protein)
apparent KM of FakB1(A158L) in the FA kinase assay with 0.2 μM FakA: 0.13 µM
